Experimental data published in patent publication US20190263904A1 (TENEOBIO, published 2019).

Target: T1, cynomolgus CD3 (cynomolgus, UniProt Q95LI5 22-198; Q95LI8 22-171)
T1 construct: Rats were immunised with cynomolgus CD3-epsilon/delta constructs; also called CD3 protein of Cynomolgus macaque; non-human primate CD3 proteins
Test: flow cytometry, parental monospecific anti-CD3 on cyno T-cells

T1 sequence (Q95LI5 22-198, chain 1 of 2): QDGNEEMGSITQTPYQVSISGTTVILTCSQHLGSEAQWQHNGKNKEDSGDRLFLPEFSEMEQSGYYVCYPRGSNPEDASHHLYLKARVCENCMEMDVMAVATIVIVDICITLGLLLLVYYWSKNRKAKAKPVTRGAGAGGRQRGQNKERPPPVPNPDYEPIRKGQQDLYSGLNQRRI
T1 sequence (Q95LI8 22-171, chain 2 of 2): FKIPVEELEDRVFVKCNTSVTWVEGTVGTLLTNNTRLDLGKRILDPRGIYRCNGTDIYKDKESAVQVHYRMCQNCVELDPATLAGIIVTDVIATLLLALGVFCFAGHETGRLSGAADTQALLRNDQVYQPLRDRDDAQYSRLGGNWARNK

Row | Binder | Cyno T-cell bind (MFI)
1 | anti-CD3 FlicAb ID 304703 (SEQ ID NO:39) (antibody, V domains shown, fully human IgG1 with the fixed kappa light chain) VH: QLQLQESGPGLVKPSQTLSLTCTVSGGSISSGGHYWSWIRQHPGKGLEWIGYIHYSGSTYYNPSLKSRVIISVDTSKNQFSLKLRSVTAADTAVYYCARWRHDIFAAYPYYYYGMDVWGQGTLVTVSS VL: not shown | 26.2 MFI
2 | anti-CD3 FlicAb ID 313306 (SEQ ID NO:1) (antibody, V domains shown, fully human IgG1 with the fixed kappa light chain; also called αCD3_F1F) VH: QLQLQESGPGLVKPSQTLSLTCSVSGGSIRSGGHYWSWIRQHPGKGLEWIGYIHHSGSTYYNPSLKSRVIISVDTSKNQFSLKLRSVTAADTAIYYCARWRHDIFTTYPYYYYGMDVWGQGTLVTVSS VL: not shown | 71.7 MFI
3 | anti-CD3 FlicAb ID 313329 (SEQ ID NO:6) (antibody, V domains shown, fully human IgG1 with the fixed kappa light chain) VH: QLQLQESGPGLVKPSETLSLTCTVSGGSISSGGHYWSWIRQHPGKGLEWIGYIHHSGSTNYNPSLKSRITISVDTSKNQFSLKVSSVTAADTAVYYCARWRHDIFAAYPYYYYGMDVWGQGTLVTVSS VL: not shown | 17.4 MFI
